# Publication PMC10663505 (Nature Communications, 2023)
# Target: the molecule itself
# Test: native gel or EMSA
protein,measurement,value
"phosphorylated TBK1 (Native-PAGE of Supplementary Fig. S8a) (enzyme, UniProt Q9WUN2 1-729, looked up, phosphorylated (detected with the anti-phosphorylated TBK1 antibody), probably endogenous mouse TBK1) MQSTSNHLWLLSDILGQGATANVFRGRHKKTGDLYAVKVFNNISFLRPVDVQMREFEVLKKLNHKNIVKLFAIEEETTTRHKVLIMEFCPCGSLYTVLEEPSNAYGLPESEFLIVLRDVVGGMNHLRENGIVHRDIKPGNIMRVIGEDGQSVYKLTDFGAARELEDDEQFVSLYGTEEYLHPDMYERAVLRKDHQKKYGATVDLWSVGVTFYHAATGSLPFRPFEGPRRNKEVMYKIITGKPSGAISGVQKAENGPIDWSGDMPLSCSLSQGLQALLTPVLANILEADQEKCWGFDQFFAETSDVLHRMVIHVFSLQHMTAHKIYIHSYNTAAVFHELVYKQTKIVSSNQELIYEGRRLVLELGRLAQHFPKTTEENPIFVTSREQLNTVGLRYEKISLPKIHPRYDLDGDASMAKAVTGVVCYACRTASTLLLYQELMRKGVRWLVELVKDDYNETVHKKTEVVITLDFCIRNIEKTVKVYEKLMKVNLEAAELGEISDIHTKLLRLSSSQGTIESSLQDISSRLSPGGLLADTWAHQEGTHPRDRNVEKLQVLLNCITEIYYQFKKDKAERRLAYNEEQIHKFDKQKLYYHATKAMSHFSEECVRKYEAFKDKSEEWMRKMLHLRKQLLSLTNQCFDIEEEVSKYQDYTNELQETLPQKMLAASGGVKHAMAPIYPSSNTLVEMTLGMKKLKEEMEGVVKELAENNHILERFGSLTMDGGLRNVDCL",stoichiometry N,2
